Laboratory results taken from US20200317768A1 (published 2020).
Positions count from the first letter of the chain named.

Columns and labels:
[1] = target: T1, cynomolgus monkey FcγRIIa1 extracellular domain with C-terminal His-tag (cynomolgus monkey); assay: SPR (Biacore); KD of SG1 divided by KD of the variant for this FcgR;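 note: relative to parent M103205H795-SG1 carrying the SG1 human heavy chain constant region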
T1 construct: Expressed in FreeStyle 293 cells and purified; also called cyno FcγRIIa1; cynoFcgRIIa1; not shown: C-terminal His-tag
T1 chain: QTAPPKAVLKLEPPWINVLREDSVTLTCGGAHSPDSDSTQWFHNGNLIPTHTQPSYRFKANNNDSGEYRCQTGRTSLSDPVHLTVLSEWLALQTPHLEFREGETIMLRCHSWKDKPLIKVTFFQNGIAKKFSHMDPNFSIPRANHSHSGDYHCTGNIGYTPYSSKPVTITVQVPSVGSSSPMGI
Experimental: (§1) The kinetic analysis of interactions between these antibodies and FcγR was carried out using BIACORE® T200 or BIACORE® 4000 (GE Healthcare). HBS-EP+ (GE Healthcare) was used as the running buffer, and the measurement temperature was set to 25° C. A chip produced by immobilizing Protein A. Protein A/G or mouse anti-human IgG kappa light chain (BD Biosciences) onto a Series S Sensor Chip CM4 or CM5 (GE Healthcare) by the amine-coupling method was used. […] After the measurement, the antibody captured on the chip was washed off by allowing reaction with 10 mM glycine-HCl, pH1.5 and 25 mM NaOH so that the chip was regenerated and used repeatedly. The sensorgrams obtained as measurement results were analyzed by the 1:1 Langmuir binding model using the BIACORE® Evaluation Software to calculate the binding rate constant ka (L/mol/s) and dissociation rate constant kd (l/s), and the dissociation constant KD (mol/L) was calculated from these values. […] Regarding such interactions, KD values were calculated using the following 1:1 binding model described in BIACORE® T100 Software Handbook BR1006-48 Edition AE.
(§2) The resultant variants were expressed using M103202L889-SK1 as light chain and their affinity to human and cynoFcγRs were evaluated (Table 20).

[2] = target: T2, human FcγRIIaH extracellular domain with C-terminal His-tag (human, UniProt P12318 34-217); assay: as above
T2 construct: Expressed in FreeStyle 293 cells and purified; also called human FcγRIIa (type H); FcgRIIaH; not shown: C-terminal His-tag
T2 sequence: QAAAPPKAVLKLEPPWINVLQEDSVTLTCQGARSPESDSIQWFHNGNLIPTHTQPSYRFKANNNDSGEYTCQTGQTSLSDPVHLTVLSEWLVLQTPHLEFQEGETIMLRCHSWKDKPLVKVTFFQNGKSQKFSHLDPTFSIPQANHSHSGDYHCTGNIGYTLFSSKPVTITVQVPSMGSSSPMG
Experimental: as §1, §2

[3] = target: T3, human FcγRIIIaV extracellular domain with C-terminal His-tag (human, UniProt P08637 17-208); assay: as above
T3 construct: Expressed in FreeStyle 293 cells and purified; also called FcgRIIIaV; not shown: C-terminal His-tag
Experimental: as §1, §2

[4] = target: T4, cynomolgus monkey FcγRIIa2 extracellular domain with C-terminal His-tag (cynomolgus monkey); assay: SPR (Biacore), antibody captured on chip, FcgR extracellular domain as analyte, 25 C
T4 construct: Expressed in FreeStyle 293 cells and purified; also called cyno FcγRIIa2; cynoFcgRIIa2; not shown: C-terminal His-tag
T4 chain: T1 chain with P95T, T121A, I127K, A128S, K130N, D135N, R142Q
Experimental: as §1, §2

[5] = target: T5, cynomolgus monkey FcγRIIa3 extracellular domain with C-terminal His-tag (cynomolgus monkey); assay: as above
T5 construct: Expressed in FreeStyle 293 cells and purified; also called cyno FcγRIIa3; cynoFcgRIIa3; not shown: C-terminal His-tag
T5 chain: T1 chain with P95T, T121A, A128S, H133P, D135N
Experimental: as §1, §2

[6] = target: T6, cynomolgus monkey FcγRIIb extracellular domain with C-terminal His-tag (cynomolgus monkey); assay: as above
T6 construct: Expressed in FreeStyle 293 cells and purified; also called cyno FcγRIIb; cynoFcγRIIb; not shown: C-terminal His-tag
T6 chain: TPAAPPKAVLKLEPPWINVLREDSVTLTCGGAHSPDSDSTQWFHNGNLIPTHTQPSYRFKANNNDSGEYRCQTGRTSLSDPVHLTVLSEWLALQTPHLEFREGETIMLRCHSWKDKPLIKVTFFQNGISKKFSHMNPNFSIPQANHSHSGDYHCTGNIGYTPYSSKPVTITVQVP
Experimental: as §1, §2

[7] = target: T2, human FcγRIIaH extracellular domain …; assay: as above
Experimental: as §1, §2

[8] = target: T7, human FcγRIIb extracellular domain with C-terminal His-tag (human, UniProt P31994 43-217); assay: as above
T7 construct: Expressed in FreeStyle 293 cells and purified; also called humanFcgRIIb; not shown: C-terminal His-tag
T7 sequence: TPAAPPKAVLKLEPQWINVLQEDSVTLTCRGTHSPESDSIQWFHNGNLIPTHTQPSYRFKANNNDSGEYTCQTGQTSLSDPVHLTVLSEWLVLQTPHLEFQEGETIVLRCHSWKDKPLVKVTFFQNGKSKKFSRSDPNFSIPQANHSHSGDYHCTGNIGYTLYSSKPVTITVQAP
Experimental: as §1, §2

[9] = target: T3, human FcγRIIIaV extracellular domain …; assay: as above
Experimental: as §1, §2

T3 sequence (P08637 17-208 F176V): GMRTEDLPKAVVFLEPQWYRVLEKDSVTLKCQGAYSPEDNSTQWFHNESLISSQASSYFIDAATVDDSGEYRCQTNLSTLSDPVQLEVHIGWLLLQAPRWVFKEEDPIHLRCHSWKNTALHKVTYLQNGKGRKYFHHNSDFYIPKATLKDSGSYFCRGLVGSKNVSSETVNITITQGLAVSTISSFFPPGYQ

- KD fold (SG1 = 1) [1]: 1.4 fold
- KD fold (SG1 = 1) [2]: 0.5 fold
- KD fold (SG1 = 1) [3]: 0.14 fold
- Kd [4]: 23 µM
- Kd [5]: 92 µM
- Kd [6]: 0.98 µM
- Kd [7]: 1.2 µM
- Kd [8]: 12 µM
- Kd [9]: 5.9 µM
B1: M103205H795-MY171 / M103202L889-SK1 (antibody, human IgG1, kappa)
heavy: QVTLKESGPVLVKPTETLTLTCTVSGIDLSHDDISWVRQAPGKGLEWVGIISYAGSTYYASWAKGRLTISKDTSKNQVVLTMTNMDPVDTATYYCARGVPAYSHGGDLWGQGTLVTVSSASTKGPSVFPLAPSSKSTSGGTAALGCLVKDYFPEPVTVSWNSGALTSGVHTFPAVLQSSGLYSLSSVVTVPSSSLGTQTYICNVNHKPSNTKVDKKVEPKSCDKTHTCPPCPAPELLNGPSVFLFPPKPKDTLMISRTPEVTCVVVDVSEEDPEVKFNWYVDGVEVHNAKTKPREEQYNSTYRVVSVLTVLHQDWLNGKEYKCKVSNKALPAPIEKTISKAKGQPREPQVYTLPPSREEMTKNQVSLTCLVKGFYPSDIAVEWESNGQPENNYKTTPFVLDSDGSFFLYSKLTVDKSRWQQGNVFSCSVMHEALHNHYTQKSLSLSP
light: DIVMTQSPATLSLSPGERATLSCTSSQSVYHANWLSWFQQKPGQPPKLLIYWASTLAYGVPSRFSGSGSGTDFTLTISSLQPEDAATYYCAGGYGGGRYAFGQGTKVEIKRTVAAPSVFIFPPSDEQLKSGTASVVCLLNNFYPREAKVQWKVDNALQSGNSQESVTEQDSKDSTYSLSSTLTLSKADYEKHKVYACEVTHQGLSSPVTKSFNRGEC
notes: Position 396 variant derived from MY052, expressed with M103202L889-SK1 as light chain
